{
  "source": "the RNAGym collection of RNA variant scans (doi:10.7554/elife.80360)",
  "parents": {"B1": {"name": "HDV Ribozyme (parent)", "chain": "GGCCGGCAUGGUCCCAGCCUCCUCGCUGGCGCCGGCUGGGCAACAUUCCGAGGGGACCGUCCCCUCGGUAAUGGCGAAUGGGACCCA"}},
  "data": [
    {"variants_of": "B1", "test": "self-cleavage, relative activity (ratio to wild type); higher = more cleavage; co-transcriptional", "values": [
      {"variant": "G25A G55U", "self-cleavage": 0.128},
      {"variant": "G25A G55A", "self-cleavage": 0.193},
      {"variant": "C24U C63U", "self-cleavage": 0.726},
      {"variant": "C24U C63G", "self-cleavage": 0.76},
      {"variant": "C24U U79G", "self-cleavage": 0.244},
      {"variant": "G25C C49G", "self-cleavage": 0.0594},
      {"variant": "G25C C49U", "self-cleavage": 0.222},
      {"variant": "C24U C49A", "self-cleavage": 0.739},
      {"variant": "C24U C49G", "self-cleavage": 0.536},
      {"variant": "C24U A56G", "self-cleavage": 0.77},
      {"variant": "G25C G38A", "self-cleavage": 0.259},
      {"variant": "C24U G81C", "self-cleavage": 0.111},
      {"variant": "C24U G81A", "self-cleavage": 0.185},
      {"variant": "C24G U79A", "self-cleavage": 0.0898},
      {"variant": "C24G G80C", "self-cleavage": 0.271},
      {"variant": "G25U A42C", "self-cleavage": 0.135},
      {"variant": "G25U A42U", "self-cleavage": 0.173},
      {"variant": "C24U G59A", "self-cleavage": 0.623},
      {"variant": "C24U G59U", "self-cleavage": 0.736},
      {"variant": "G25C G73U", "self-cleavage": 0.185},
      {"variant": "G25C G73C", "self-cleavage": 0.0773},
      {"variant": "G25A C75U", "self-cleavage": 0.0923},
      {"variant": "G25A C75G", "self-cleavage": 0.102},
      {"variant": "G25A C75A", "self-cleavage": 0.166},
      {"variant": "C24U C33U", "self-cleavage": 0.354},
      {"variant": "G25A C63G", "self-cleavage": 0.237},
      {"variant": "G25C G59C", "self-cleavage": 0.131},
      {"variant": "G25C G59U", "self-cleavage": 0.116},
      {"variant": "G25C G59A", "self-cleavage": 0.0791},
      {"variant": "G25A A43G", "self-cleavage": 0.35},
      {"variant": "G25A A43C", "self-cleavage": 0},
      {"variant": "C24U U65C", "self-cleavage": 0.597},
      {"variant": "C24U U65G", "self-cleavage": 0.435},
      {"variant": "C24U G76A", "self-cleavage": 0.59},
      {"variant": "C24U G76C", "self-cleavage": 0.997},
      {"variant": "C24G G53U", "self-cleavage": 0.117},
      {"variant": "C24U C62U", "self-cleavage": 0.763},
      {"variant": "C24U C62A", "self-cleavage": 0.471},
      {"variant": "C24U C62G", "self-cleavage": 0.341},
      {"variant": "C24U G73A", "self-cleavage": 0.188},
      {"variant": "C24U U60G", "self-cleavage": 0.573},
      {"variant": "G25A G68A", "self-cleavage": 0.179},
      {"variant": "G25A G68U", "self-cleavage": 0.247},
      {"variant": "G25C G67A", "self-cleavage": 0.123},
      {"variant": "G25C G67U", "self-cleavage": 0},
      {"variant": "G25C G67C", "self-cleavage": 0.0415},
      {"variant": "G25A G73U", "self-cleavage": 0.0702},
      {"variant": "G25A G73A", "self-cleavage": 0.0583},
      {"variant": "G25C U27A", "self-cleavage": 0.175},
      {"variant": "C24U G67U", "self-cleavage": 0.372},
      {"variant": "C24U G67A", "self-cleavage": 0.554},
      {"variant": "G25C C86U", "self-cleavage": 0.104},
      {"variant": "G25C C86A", "self-cleavage": 0.128},
      {"variant": "G25A A56G", "self-cleavage": 0.227},
      {"variant": "G25A A56U", "self-cleavage": 0.111},
      {"variant": "G25A A56C", "self-cleavage": 0.325},
      {"variant": "G25A C84U", "self-cleavage": 0.173},
      {"variant": "C24U G53A", "self-cleavage": 0.87},
      {"variant": "C24U G53U", "self-cleavage": 0.802},
      {"variant": "C24U G55U", "self-cleavage": 0.698},
      {"variant": "C24U G55A", "self-cleavage": 0.869},
      {"variant": "C24G U47A", "self-cleavage": 0.106},
      {"variant": "C24G U47G", "self-cleavage": 0.0978},
      {"variant": "G25A G35C", "self-cleavage": 0.0627},
      {"variant": "G25A G35U", "self-cleavage": 0.135},
      {"variant": "G25C G34C", "self-cleavage": 0.0426},
      {"variant": "G25C G34U", "self-cleavage": 0},
      {"variant": "G25C U72C", "self-cleavage": 0.123},
      {"variant": "G25C U72A", "self-cleavage": 0.0791},
      {"variant": "G25U A45C", "self-cleavage": 0.0831},
      {"variant": "G25U A45G", "self-cleavage": 0.401},
      {"variant": "G25A G40C", "self-cleavage": 0.0959},
      {"variant": "G25A G40A", "self-cleavage": 0.317},
      {"variant": "G25A C26G", "self-cleavage": 1.11},
      {"variant": "G25A C26A", "self-cleavage": 0.0852},
      {"variant": "G25A C26U", "self-cleavage": 0.339},
      {"variant": "G25A A87C", "self-cleavage": 0.183},
      {"variant": "G25U A43U", "self-cleavage": 0.0707},
      {"variant": "G25U A43G", "self-cleavage": 0.0573},
      {"variant": "G25U A43C", "self-cleavage": 0.147},
      {"variant": "G25A G81C", "self-cleavage": 0.258},
      {"variant": "G25A G81U", "self-cleavage": 0.112},
      {"variant": "C24U C32A", "self-cleavage": 0.0287}
    ]}
  ]
}
